Laboratory results from the supplement of paper PMC9112550, “Optimization of the antimicrobial peptide Bac7 by deep mutational scanning” (BMC Biology, 2022).

system: Escherichia coli TOP10; experiment: shrunken log2 fold change of peptide-encoding DNA abundance (4.5 h post-induction vs induction); higher = less antimicrobial activity (less host growth inhibition); conditions: time post-induction: 4.5 h; library: site-saturation at positions 5, 18, 19, 20
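Note: peptides expressed intracellularly from a pBAD plasmid library in pooled LB shake-flask culture, induced with 0.3% L-arabinose, DNA abundance read by NGS, three biological replicates, DESeq2 with apeglm shrinkage.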

First: RRIRCRPPRLPRPRPRPINWPRP
Second: RRIRARPPRLPRPRPRPIVVPRP
The “shrunken log2 fold change” value of the first is lower: -0.407 for the first, -0.14 for the second.

First: RRIRNRPPRLPRPRPRPYGGPRP
Second: RRIRRRPPRLPRPRPRPNSMPRP
The “shrunken log2 fold change” value of the first is higher: -0.0102 for the first, -0.233 for the second.

Compared with RRIRMRPPRLPRPRPRPKVWPRP, RRIRDRPPRLPRPRPRPEKPPRP is lower in “shrunken log2 fold change” value: 1.04 for the first, -0.173 for the second.

RRIRFRPPRLPRPRPRPETSPRP and RRIRPRPPRLPRPRPRPKEVPRP are within 0.2 log units of each other in “shrunken log2 fold change” value: 0.0493 for the first, -0.0501 for the second.

Going from RRIRSRPPRLPRPRPRPDKMPRP to RRIRNRPPRLPRPRPRPGPAPRP, the “shrunken log2 fold change” value rises from -0.15 to 0.627.

First: RRIRRRPPRLPRPRPRPHRDPRP
Second: RRIRKRPPRLPRPRPRPNTQPRP
The “shrunken log2 fold change” value of the first is higher: 0.546 for the first, -0.0781 for the second.

RRIRDRPPRLPRPRPRPAMVPRP and RRIRCRPPRLPRPRPRPELMPRP are within 0.2 log units of each other in “shrunken log2 fold change” value: 0.282 for the first, 0.23 for the second.

RRIRMRPPRLPRPRPRPWVWPRP and RRIRKRPPRLPRPRPRPYPSPRP are within 0.2 log units of each other in “shrunken log2 fold change” value: 0.169 for the first, 0.0794 for the second.

RRIRQRPPRLPRPRPRPAAGPRP and RRIRKRPPRLPRPRPRPPFIPRP are within 0.2 log units of each other in “shrunken log2 fold change” value: 0.0657 for the first, -0.00551 for the second.

RRIRARPPRLPRPRPRPFRAPRP and RRIRDRPPRLPRPRPRPAENPRP are within 0.2 log units of each other in “shrunken log2 fold change” value: 0.0497 for the first, 0.224 for the second.

First: RRIRNRPPRLPRPRPRPCWHPRP
Second: RRIRGRPPRLPRPRPRPARKPRP
The “shrunken log2 fold change” value of the first is lower: -0.0656 for the first, 0.222 for the second.

Going from RRIRARPPRLPRPRPRPVGTPRP to RRIRYRPPRLPRPRPRPRCNPRP, the “shrunken log2 fold change” value falls from 0.441 to -0.552.

Going from RRIRYRPPRLPRPRPRPIRYPRP to RRIRRRPPRLPRPRPRPMFEPRP, the “shrunken log2 fold change” value rises from -0.00146 to 0.266.

RRIRIRPPRLPRPRPRPRENPRP and RRIRHRPPRLPRPRPRPCEEPRP are within 0.2 log units of each other in “shrunken log2 fold change” value: 0.0178 for the first, 0.0167 for the second.

First: RRIRNRPPRLPRPRPRPDYDPRP
Second: RRIRARPPRLPRPRPRPLPKPRP
The “shrunken log2 fold change” value of the first is lower: -0.0133 for the first, 0.748 for the second.

RRIRKRPPRLPRPRPRPNLSPRP and RRIRPRPPRLPRPRPRPEQAPRP are within 0.2 log units of each other in “shrunken log2 fold change” value: -0.0224 for the first, 0.0776 for the second.

Going from RRIRFRPPRLPRPRPRPVQVPRP to RRIRTRPPRLPRPRPRPMMYPRP, the “shrunken log2 fold change” value rises from -0.416 to -0.00147.

First: RRIRMRPPRLPRPRPRPFWQPRP
Second: RRIRNRPPRLPRPRPRPLMNPRP
The “shrunken log2 fold change” value of the first is higher: 0.341 for the first, -0.853 for the second.

First: RRIRRRPPRLPRPRPRPLDNPRP
Second: RRIRMRPPRLPRPRPRPVCCPRP
The “shrunken log2 fold change” value of the first is lower: -0.0599 for the first, 0.496 for the second.

RRIRARPPRLPRPRPRPCCYPRP and RRIRRRPPRLPRPRPRPTFLPRP are within 0.2 log units of each other in “shrunken log2 fold change” value: 0.0589 for the first, 0.115 for the second.

Compared with RRIRARPPRLPRPRPRPLYCPRP, RRIRNRPPRLPRPRPRPAGSPRP is lower in “shrunken log2 fold change” value: 0.765 for the first, 0.086 for the second.

First: RRIRHRPPRLPRPRPRPPPAPRP
Second: RRIRKRPPRLPRPRPRPCVVPRP
The “shrunken log2 fold change” value of the first is higher: 1.07 for the first, 0.0713 for the second.

RRIRIRPPRLPRPRPRPAPVPRP and RRIRCRPPRLPRPRPRPEVFPRP are within 0.2 log units of each other in “shrunken log2 fold change” value: 0.171 for the first, 0.00979 for the second.

First: RRIRPRPPRLPRPRPRPMNIPRP
Second: RRIRQRPPRLPRPRPRPTNHPRP
The “shrunken log2 fold change” value of the first is lower: -0.793 for the first, -0.552 for the second.

Going from RRIRLRPPRLPRPRPRPVPWPRP to RRIRERPPRLPRPRPRPDIMPRP, the “shrunken log2 fold change” value falls from 0.0255 to -0.196.

RRIRTRPPRLPRPRPRPKRPPRP and RRIRSRPPRLPRPRPRPVQHPRP are within 0.2 log units of each other in “shrunken log2 fold change” value: -0.165 for the first, -0.0389 for the second.

Compared with RRIRQRPPRLPRPRPRPGIGPRP, RRIRFRPPRLPRPRPRPKMYPRP is lower in “shrunken log2 fold change” value: -0.005 for the first, -0.815 for the second.

RRIRARPPRLPRPRPRPCMEPRP and RRIRGRPPRLPRPRPRPTVIPRP are within 0.2 log units of each other in “shrunken log2 fold change” value: 0.0522 for the first, 0.107 for the second.

RRIRPRPPRLPRPRPRPFVIPRP and RRIRSRPPRLPRPRPRPMSHPRP are within 0.2 log units of each other in “shrunken log2 fold change” value: 0.00225 for the first, -0.109 for the second.

Going from RRIRFRPPRLPRPRPRPEGWPRP to RRIRHRPPRLPRPRPRPNIDPRP, the “shrunken log2 fold change” value falls from 0.807 to -0.153.

Going from RRIRKRPPRLPRPRPRPHNGPRP to RRIRGRPPRLPRPRPRPLWVPRP, the “shrunken log2 fold change” value rises from 0.169 to 0.472.

RRIRDRPPRLPRPRPRPWIKPRP and RRIRDRPPRLPRPRPRPVPDPRP are within 0.2 log units of each other in “shrunken log2 fold change” value: 0.00902 for the first, -0.0933 for the second.

Compared with RRIRPRPPRLPRPRPRPAYAPRP, RRIRYRPPRLPRPRPRPNGMPRP is lower in “shrunken log2 fold change” value: 0.16 for the first, -0.0465 for the second.

Compared with RRIRVRPPRLPRPRPRPGDHPRP, RRIRNRPPRLPRPRPRPRFPPRP is lower in “shrunken log2 fold change” value: -0.0257 for the first, -0.365 for the second.

Going from RRIRGRPPRLPRPRPRPCTPPRP to RRIRLRPPRLPRPRPRPNFKPRP, the “shrunken log2 fold change” value falls from 0.337 to -0.206.

Going from RRIRERPPRLPRPRPRPRACPRP to RRIRSRPPRLPRPRPRPVYVPRP, the “shrunken log2 fold change” value falls from 0.177 to -0.525.

RRIRYRPPRLPRPRPRPQDVPRP and RRIRQRPPRLPRPRPRPKPEPRP are within 0.2 log units of each other in “shrunken log2 fold change” value: -0.103 for the first, -0.0759 for the second.

First: RRIRGRPPRLPRPRPRPTMGPRP
Second: RRIRHRPPRLPRPRPRPNWIPRP
The “shrunken log2 fold change” value of the first is higher: 0.875 for the first, -0.19 for the second.

First: RRIRFRPPRLPRPRPRPCRNPRP
Second: RRIRYRPPRLPRPRPRPIDFPRP
The “shrunken log2 fold change” value of the first is higher: -0.0376 for the first, -0.245 for the second.

Going from RRIRRRPPRLPRPRPRPKAKPRP to RRIRKRPPRLPRPRPRPEGGPRP, the “shrunken log2 fold change” value rises from 0.0788 to 0.543.

RRIRSRPPRLPRPRPRPSWMPRP and RRIRFRPPRLPRPRPRPDGFPRP are within 0.2 log units of each other in “shrunken log2 fold change” value: -0.0505 for the first, 0.015 for the second.

Going from RRIRSRPPRLPRPRPRPACSPRP to RRIRDRPPRLPRPRPRPQEAPRP, the “shrunken log2 fold change” value falls from 0.147 to -0.0652.

RRIRNRPPRLPRPRPRPDHRPRP and RRIRWRPPRLPRPRPRPVSLPRP are within 0.2 log units of each other in “shrunken log2 fold change” value: -0.0124 for the first, 0.15 for the second.

Compared with RRIRRRPPRLPRPRPRPVMTPRP, RRIRLRPPRLPRPRPRPTYPPRP is lower in “shrunken log2 fold change” value: 0.573 for the first, 0.0515 for the second.

RRIRDRPPRLPRPRPRPPTAPRP and RRIRSRPPRLPRPRPRPQSCPRP are within 0.2 log units of each other in “shrunken log2 fold change” value: 0.0444 for the first, -0.00487 for the second.

RRIRCRPPRLPRPRPRPPYFPRP and RRIRVRPPRLPRPRPRPKFEPRP are within 0.2 log units of each other in “shrunken log2 fold change” value: -0.07 for the first, 0.12 for the second.

First: RRIRKRPPRLPRPRPRPMRCPRP
Second: RRIRWRPPRLPRPRPRPGKGPRP
The “shrunken log2 fold change” value of the first is higher: 1.16 for the first, -0.0357 for the second.

Compared with RRIRWRPPRLPRPRPRPQCKPRP, RRIRGRPPRLPRPRPRPDDTPRP is higher in “shrunken log2 fold change” value: 0.132 for the first, 0.944 for the second.

RRIRTRPPRLPRPRPRPSPHPRP and RRIRQRPPRLPRPRPRPMFMPRP are within 0.2 log units of each other in “shrunken log2 fold change” value: -0.159 for the first, -0.0688 for the second.

Going from RRIRDRPPRLPRPRPRPKDLPRP to RRIRERPPRLPRPRPRPQNDPRP, the “shrunken log2 fold change” value falls from -0.0191 to -0.551.

RRIRKRPPRLPRPRPRPMTGPRP and RRIRKRPPRLPRPRPRPWQCPRP are within 0.2 log units of each other in “shrunken log2 fold change” value: 0.0188 for the first, -0.00136 for the second.

Going from RRIRHRPPRLPRPRPRPSKLPRP to RRIRFRPPRLPRPRPRPKPQPRP, the “shrunken log2 fold change” value rises from -0.448 to 0.384.

RRIRTRPPRLPRPRPRPTCFPRP and RRIRNRPPRLPRPRPRPHCNPRP are within 0.2 log units of each other in “shrunken log2 fold change” value: -0.35 for the first, -0.196 for the second.

RRIRLRPPRLPRPRPRPVTWPRP and RRIRARPPRLPRPRPRPNRDPRP are within 0.2 log units of each other in “shrunken log2 fold change” value: -0.0276 for the first, -0.183 for the second.

For RRIRDRPPRLPRPRPRPMVHPRP, the “shrunken log2 fold change” value was 0.234.
